Reference: US20130136748A1 (Ablynx, published 2013)
Residue numbers refer to the chain shown, from its start. Names and notes keep the numbering of the source. Values joined by “and” are separate entries in the source; they are usually repeats but may differ in a detail not shown here. Equal entries are not always repeated. Blank lines part the entries; values can stand above or below the binder they belong to.

Columns and labels:
[1] = biological target: T1, human HER3-Fc (R&D Systems, 348-RB) (human, UniProt P21860 20-643); test: alphascreen, competitor biotinylated 18G11
T1 construct: Bought; also called hHER3-Fc; Fc-HER3; Fc part of the bought chimera not given, not described

[2] = biological target: T1, human HER3-Fc (R&D Systems, 348-RB); test: 18G11 competition alphascreen
[3] = biological target: T2, hHER3 ECD (human HER3 extracellular domain) (human, UniProt P21860 20-643); test: SPR off rate
T2 construct: also called recombinant HER3-ECD

[4] = biological target: T3, hHER3 full length (human, UniProt P21860 20-1342); test: cell-based or functional assay
[5] = biological target: T3, hHER3 full length; test: FACS, 400 nM, competitor 04C07-biotin
[6] = biological target: T3, hHER3 full length; test: cell-based or functional assay; remark: listed apart in the source
[7] = biological target: T4, human HER1 (human, UniProt P00533 25-1210); test: FACS CHO-HER1, 667 nM
T4 construct: also called EGFR; ErbB1

[8] = biological target: T4, human HER1; test: FACS, CHO-HER1
[9] = biological target: T3, hHER3 full length; test: FACS competition with HRG1-β1-EGF, CHO-HER3
[10] = biological target: T3, hHER3 full length; test: FACS, 400 nM, competitor 23F05-biotin
[11] = biological target: T5, human HER4 (human, UniProt Q15303 26-1308); test: FACS CHO-HER4, 2000 nM
[12] = biological target: T5, human HER4; test: FACS CHO-HER4, 222 nM
[13] = biological target: T3, hHER3 full length; test: FACS, 400 nM, competitor 18E08-biotin
[14] = biological target: T3, hHER3 full length; test: FACS, 400 nM, competitor 21B02-biotin
[15] = biological target: T6, human HER2 (human, UniProt P04626 23-1255); test: FACS CHO-HER2, 2000 nM
T6 construct: also called hHER2

[16] = biological target: T3, hHER3 full length; test: FACS, 400 nM, competitor 17C08-biotin
[17] = biological target: T4, human HER1; test: FACS CHO-HER1, 2000 nM
[18] = biological target: T6, human HER2; test: FACS CHO-HER2, 222 nM
[19] = biological target: T5, human HER4; test: FACS CHO-HER4, 667 nM
[20] = biological target: T5, human HER4; test: FACS, CHO-HER4
[21] = biological target: T4, human HER1; test: FACS CHO-HER1, 222 nM
[22] = biological target: T3, hHER3 full length; test: cell-based or functional assay; remark: listed apart in the source
[23] = biological target: T6, human HER2; test: FACS, CHO-HER2
[24] = biological target: T3, hHER3 full length; test: FACS, 400 nM, competitor 04F10-biotin
[25] = biological target: T7, cHER3ECD (Maccaca fascicularis HER3 extracellular domain) (Macaca fascicularis, UniProt P21860 20-643 (human entry)); test: ELISA, coated cHER3-ECD
T7 construct: also called cyno HER3ECD; cyno HER3-ECD
T7 chain: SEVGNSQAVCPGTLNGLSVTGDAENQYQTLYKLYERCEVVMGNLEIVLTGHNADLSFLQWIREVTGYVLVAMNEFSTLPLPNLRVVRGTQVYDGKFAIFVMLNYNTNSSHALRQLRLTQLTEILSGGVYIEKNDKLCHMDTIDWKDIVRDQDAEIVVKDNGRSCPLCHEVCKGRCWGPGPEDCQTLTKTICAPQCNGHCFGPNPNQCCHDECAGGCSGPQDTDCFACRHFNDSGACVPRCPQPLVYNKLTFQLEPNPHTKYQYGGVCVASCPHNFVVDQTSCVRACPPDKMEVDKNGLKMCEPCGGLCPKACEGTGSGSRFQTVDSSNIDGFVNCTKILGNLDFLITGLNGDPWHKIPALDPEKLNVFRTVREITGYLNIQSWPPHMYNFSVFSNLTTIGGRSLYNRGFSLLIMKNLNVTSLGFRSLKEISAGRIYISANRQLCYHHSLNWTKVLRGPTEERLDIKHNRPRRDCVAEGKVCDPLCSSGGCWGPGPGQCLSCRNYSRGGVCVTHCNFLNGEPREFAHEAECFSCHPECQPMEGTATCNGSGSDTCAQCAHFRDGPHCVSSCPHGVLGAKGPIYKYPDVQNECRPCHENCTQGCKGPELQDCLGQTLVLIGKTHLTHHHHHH

[26] = biological target: T2, hHER3 ECD (human HER3 extracellular …); test: ELISA, coated hHER3-ECD
[27] = biological target: T8, Chicken Her3 (AA1-25 human, AA26-642 chicken) (chicken (human signal sequence)); test: FACS, HEK293 with chicken HER3
T8 construct: Transmembrane and extracellular regions only, on transiently transfected HEK293 cells; also called full length extracellular chicken HER3
T8 chain: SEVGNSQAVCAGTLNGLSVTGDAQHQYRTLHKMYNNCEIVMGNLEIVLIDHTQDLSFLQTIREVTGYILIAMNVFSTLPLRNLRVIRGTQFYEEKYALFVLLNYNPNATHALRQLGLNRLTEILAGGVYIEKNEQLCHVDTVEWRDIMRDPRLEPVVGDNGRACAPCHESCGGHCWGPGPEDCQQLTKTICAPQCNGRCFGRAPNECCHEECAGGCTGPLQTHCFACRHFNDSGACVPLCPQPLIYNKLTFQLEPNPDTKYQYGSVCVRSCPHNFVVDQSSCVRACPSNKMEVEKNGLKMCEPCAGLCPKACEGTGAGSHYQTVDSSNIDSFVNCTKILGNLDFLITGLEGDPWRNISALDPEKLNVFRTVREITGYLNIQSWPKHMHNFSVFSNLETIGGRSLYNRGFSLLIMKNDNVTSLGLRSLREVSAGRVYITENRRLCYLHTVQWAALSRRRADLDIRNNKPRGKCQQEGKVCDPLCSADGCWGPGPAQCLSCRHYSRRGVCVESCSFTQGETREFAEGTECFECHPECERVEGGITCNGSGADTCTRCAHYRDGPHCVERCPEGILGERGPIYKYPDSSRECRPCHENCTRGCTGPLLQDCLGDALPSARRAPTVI

[28] = biological target: T1, human HER3-Fc (R&D Systems, 348-RB); test: SPR, HER3-Fc captured by anti-Fc
[29] = biological target: T6, human HER2; test: FACS CHO-HER2, 667 nM
[30] = biological target: T3, hHER3 full length; test: cell-based or functional assay; remark: listed apart in the source
[31] = biological target: T1, human HER3-Fc (R&D Systems, 348-RB); test: HRG competition alphascreen
[32] = biological target: T1, human HER3-Fc (R&D Systems, 348-RB); test: HRG competition alphascreen; remark: listed apart in the source

T5 sequence (Q15303 26-1308 limits assumed): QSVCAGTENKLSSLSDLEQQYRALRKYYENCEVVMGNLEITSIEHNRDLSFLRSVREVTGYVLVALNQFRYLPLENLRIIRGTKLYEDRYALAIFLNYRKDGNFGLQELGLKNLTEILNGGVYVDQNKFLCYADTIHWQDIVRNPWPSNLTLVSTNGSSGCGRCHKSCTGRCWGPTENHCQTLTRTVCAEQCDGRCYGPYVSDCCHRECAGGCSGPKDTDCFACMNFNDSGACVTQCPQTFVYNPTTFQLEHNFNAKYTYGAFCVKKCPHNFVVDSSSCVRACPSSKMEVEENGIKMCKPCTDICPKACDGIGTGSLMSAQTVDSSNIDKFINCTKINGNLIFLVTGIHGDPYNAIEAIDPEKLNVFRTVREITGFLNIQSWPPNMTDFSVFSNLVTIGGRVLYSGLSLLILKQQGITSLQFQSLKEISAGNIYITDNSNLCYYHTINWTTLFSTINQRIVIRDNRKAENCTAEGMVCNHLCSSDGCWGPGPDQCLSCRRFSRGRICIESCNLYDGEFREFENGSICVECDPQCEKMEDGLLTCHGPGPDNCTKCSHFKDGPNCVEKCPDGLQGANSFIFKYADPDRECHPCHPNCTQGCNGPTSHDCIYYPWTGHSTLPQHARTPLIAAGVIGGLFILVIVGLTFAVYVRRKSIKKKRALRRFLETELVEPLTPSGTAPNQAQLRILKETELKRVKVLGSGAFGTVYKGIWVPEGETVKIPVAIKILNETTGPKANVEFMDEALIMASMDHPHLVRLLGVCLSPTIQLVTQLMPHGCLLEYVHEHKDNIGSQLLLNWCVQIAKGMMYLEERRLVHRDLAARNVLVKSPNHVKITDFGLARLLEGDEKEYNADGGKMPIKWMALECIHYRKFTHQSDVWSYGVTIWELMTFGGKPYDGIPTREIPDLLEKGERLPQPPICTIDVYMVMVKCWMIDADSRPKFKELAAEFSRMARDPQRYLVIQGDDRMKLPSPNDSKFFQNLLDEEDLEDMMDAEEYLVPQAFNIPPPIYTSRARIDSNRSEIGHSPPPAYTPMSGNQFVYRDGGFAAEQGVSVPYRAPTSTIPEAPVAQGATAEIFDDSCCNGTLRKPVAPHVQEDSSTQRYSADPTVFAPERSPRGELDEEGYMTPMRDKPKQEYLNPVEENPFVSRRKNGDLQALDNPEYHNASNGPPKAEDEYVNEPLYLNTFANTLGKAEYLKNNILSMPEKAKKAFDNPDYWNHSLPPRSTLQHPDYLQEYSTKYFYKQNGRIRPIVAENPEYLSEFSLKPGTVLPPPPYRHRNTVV

% competition [5]: 6% | IC50, HRG1-β1 induced pAkt, MCF-7 [6]: 4.65e-08 M | inhibition of HRG1-β1 induced pERK1/2, MCF-7 [6]: < 50 % inhibition | MCF [7]: 67 | binding result [8]: no binding (tested: 2000 nM) | IC50 [9]: 9.44 nM | % competition [10]: 100% | MCF [11]: 95 | MCF [12]: 343 | % competition [13]: 16% | % competition [14]: 100% | MCF [15]: 832 | % competition [16]: 8% | MCF [17]: 67 | MCF [18]: 97 | MCF [19]: 101 | binding result [20]: no binding (tested: 2000 nM) | MCF [21]: 153 | IC50, HRG1-β1 induced pHER3, MCF-7 [22]: 1.77e-08 M | IC50, HRG1-β1 induced pHER3, MDA-MB468 [22]: 2.41e-08 M | binding result [23]: no binding (tested: 2000 nM) | % competition [24]: 15% | EC50 [25]: 0.44 nM | EC50 [26]: 0.46 nM | binding result [27]: binds | Kd [28]: 0.99 nM | kon [28]: 3.1e+06 M⁻¹ s⁻¹ | MCF [29]: 264
B4: 23F05 (VHH)
VHH: EVQLVESGGGLVQAGGSLRLSCAASGFTFDGYAIGWFRQAPGKEREGVSCISGGDGRSYYADSVKGRFTVSSDNAKNTLYLEMNSLKPEDTAVYYCAVIWGPYCSDSYEYLYEYDYWGQGTQVTVSS

% competition [5]: 11% | IC50, HRG1-β1 induced pAkt, MCF-7 [6]: 2.31e-08 M | IC50, HRG1-β1 induced pERK1/2, MCF-7 [6]: 1.11e-07 M | MCF [7]: 110 | binding result [8]: no binding (tested: 2000 nM) | IC50 [9]: 10.1 nM | % competition [10]: 100% | IC50 pHER3, HRG1-β1 stimulated MCF7 [30]: 8.74e-09 M | MCF [11]: 263 | MCF [12]: 149 | % competition [14]: 100% | MCF [15]: 409 | % competition [16]: 9% | MCF [17]: 74 | MCF [18]: 84 | MCF [19]: 225 | binding result [20]: no binding (tested: 2000 nM) | MCF [21]: 107 | IC50, HRG1-β1 induced pHER3, MCF-7 [22]: 6.79e-09 M | IC50, HRG1-β1 induced pHER3, MDA-MB468 [22]: 7.94e-09 M | binding result [23]: no binding (tested: 2000 nM) | % competition [24]: 15% | EC50 [25]: 0.32 nM | IC50 [31]: 0.25 nM | EC50 [26]: 0.3 nM | binding result [27]: binds | Kd [28]: 0.12 nM | kon [28]: 1.8e+07 M⁻¹ s⁻¹ | MCF [29]: 229 | % inhibition [32]: 104% | IC50 [32]: 0.0135 nM
B5: 21F06 (VHH)
VHH: EVQLVESGGGLVQAGGSLRLSCAASGRTYYLNAMGWFRQGPGKDREFVAAIDWSDGNKDYADSVKGRFTISRDNAKNTVYLQMNSLKPEDTAVYYCAADTPPWGPMIYIESYDSWGQGTQVTVSS
notes: c-myc, His6-tagged form as expressed; also called 21F6; HER3MS21F06

IC50 pHER3, HRG1-β1 stimulated MCF7 [30]: 2.79e-09 M | IC50 [31]: 0.25 nM
B6: HER3MS00049 (VHH)
VHH: B5 VHH with A14P, G40A, D44E, A75S, K87R, Q120L
notes: 21F06 basic + G40A + D44E; also called HER3MS0049

Continued, binder first:

B1: HER3MS0050 (VHH)
VHH: EVQLVESGGGLVQPGGSLRLSCAASGTLFKINAMGWYRQAPGKRRELVALITSSDTTDYAESVEGRFTISRDNTWNAVYLQMNSLRPEDTAVYYCHSDHYSMGVPEKRVIMYGQGTLVTVSS
notes: Kabat numbering; also called 18G11 basic variant
IC50 [1]: 3.2 nM

B2: HER3MS00125 (VHH)
VHH: B1 VHH with R44Q, S62D, E64K, T74S, A77T, M102L, M111L
notes: 18G11 second round variant with R44Q
IC50 [2]: 14 nM | koff [3]: 0.0012 s⁻¹

B3: HER3MS00211 (VHH)
VHH: B1 VHH with E61D, E64K, T74S, A77T, M102L, M111L
notes: 18G11 second round variant without R44Q (selected)
IC50 [2]: 5.4 nM | koff [3]: 0.00072 s⁻¹ | IC50 pHER3 blocking, HRG stimulated MCF7 [4]: 1.79e-08 M and 2e-08 M

B7: 21B02 (VHH)
VHH: EVQLVESGGGLVQPGGSLRLSCAASGFTFDYYTIGWFRQAPGKEREGVSCISSRDGDSYYADSVKGRFTISRDNAKNTAYLQMNSLKPEDTAVYYCAASASDYGLGLELFHDEYNYWGQGTQVTVSS
% competition [5]: 10% | IC50, HRG1-β1 induced pAkt, MCF-7 [6]: 6.9e-08 M | inhibition of HRG1-β1 induced pERK1/2, MCF-7 [6]: < 50 % inhibition | MCF [7]: 64 | binding result [8]: no binding (tested: 2000 nM) | IC50 [9]: 13.3 nM | % competition [10]: 98% | MCF [11]: 273 | MCF [12]: 91 | % competition [13]: 20% | % competition [14]: 100% | MCF [15]: 8570 | % competition [16]: 17% | MCF [17]: 53 | MCF [18]: 1340 | MCF [19]: 119 | binding result [20]: no binding (tested: 2000 nM) | MCF [21]: 64 | IC50, HRG1-β1 induced pHER3, MCF-7 [22]: 4.88e-08 M | IC50, HRG1-β1 induced pHER3, MDA-MB468 [22]: 9.99e-08 M | % competition [24]: 15% | EC50 [25]: 0.9 nM | EC50 [26]: 1.1 nM | binding result [27]: binds | Kd [28]: 1.22 nM | kon [28]: 2.2e+06 M⁻¹ s⁻¹ | MCF [29]: 3610
